Test results taken from patent publication US20090221985A1, “SYSTEM FOR IONTOPHORETIC TRANSDERMAL DELIVERY OF POLYMERIC AGENTS AND METHODS OF USE THEREOF” (priority 2005, published 2009).

Assays:
Assay type in all cases: in vitro ADME
[1] = Iontophoretic delivery of collagen through intact (untreated) pig ear skin piece, Bradford assay; conditions: untreated 1.5 mm pig ear skin; 15V DC, 0.1 mA, 30 min; collected in 5 min intervals (FIGS. 3 and 4)
Description: Measurements were performed on collagen delivery through a 1.5 mm thick pig ear skin. The skin piece was obtained by slicing with scalpel a 1.5 mm thick section of a pig ear and fixed it over a 2 cm diameter laboratory vial. The vial was filled with a 50 ml solution of 0.05% NaCl in water to contact with the skin piece.
The experiment was performed by measuring the amount of collagen transmitted through the skin piece into the vial's solution by iontophoresis.
(§1) Collagen (100 mg/ml; Sigma) was dissolved in 10 mM sodium phosphate pH 8 containing 150 mM NaCl or in 10 mM sodium phosphate pH 8 containing 150 mM NaCl to which 10 mM glutamic acid solution was added (0.2 ml of glutamic acid were added to 1 ml of collagen to yield pH 4.0), and the glutamic acid solution was incubated at room temperature for 1 hour. Thus, positively charged collagen was driven into the skin by the positive electrode and negatively charged collagen was driven by the negative electrode. The amount of collagen transmitted through the skin was measured by the Bradford assay (Bradford M. M. Anal Biochem. 72, 248-254, 1976).
The experiments were performed at a 15V DC applied voltage and at a current of 0.1 mA for 30 min.
The amount of collagen collected in 5 min intervals was measured by the Bradford reagent.

[2] = Iontophoretic delivery of collagen through pig ear skin treated by chemical microporation, Bradford assay; conditions: Silver Nitrite microporated skin, 15V, 1 h
Description: as §1
Pig ear skin piece was treated by chemical microporation using Silver Nitrite and then iontophoresis of collagen was performed as follows:
Twenty ml reservoir was mounted over the skin piece allowing its wetting (FIG. 5). Iontophoretic transmission experiment using the same solutions as described in Example 1 herein above was performed on each sample. Electrodes were placed in the upper and lower reservoirs. At the end of the experiment the amount of collagen transmitted through the skin was measured by the Bradford assay (Bradford M. M. Anal Biochem. 72, 248-254, 1976). The iontophoresis was performed under the following conditions: 1. Distance between electrodes (upper and lower reservoir)—2 cm;

[3] = Iontophoretic delivery of hyaluronic acid (with BSA) through pig ear skin treated by chemical microporation; conditions: Silver Nitrite microporated skin, iontophoresis as in Example 1
Description: Bovine serum albumin (BSA; Sigma) was dissolved in 10 mM sodium phosphate pH 7.2 containing 0.15 M NaCl to yield BSA concentration of 10 mg/ml. Hyaluronic acid suspension (1 mg; Q-Med) was incubated with 0.1 ml of the BSA solution at 40° C. In addition, 0.1 ml glutamic acid (10 mM) was added to another sample of the hyaluronic acid-BSA solution to yield pH 4.0. Piece of a pig ear skin was exposed to chemical microporation using Silver Nitrite and then iontophoretic delivery of the complex was performed as described in Example 1 herein above.
Hyaluronic acid transmitted through the pig ear was stained by complexation with a copper phtalocyanin dye and measured by the Bradford reagent.

Transmitted amount ([3]; initial amount 0.01 mg) [mg]	Transmitted amount (%) ([3]; initial amount 0.01 mg)	Transmitted amount ([3]; initial amount 0.05 mg) [mg]	Transmitted amount (%) ([3]; initial amount 0.05 mg)	Transmitted amount ([3]; initial amount 0.1 mg) [mg]	Transmitted amount (%) ([3]; initial amount 0.1 mg)	Substance	collagen transmitted through the skin piece by iontophoresis [1]	Transmitted amount ([2]; initial amount 0.1 mg) [mg]	Transmitted amount (%) ([2]; initial amount 0.1 mg)	Transmitted amount ([2]; initial amount 0.5 mg) [mg]	Transmitted amount (%) ([2]; initial amount 0.5 mg)	Transmitted amount ([2]; initial amount 1.0 mg) [mg]	Transmitted amount (%) ([2]; initial amount 1.0 mg)	Transmitted amount ([2]; initial amount 10.0 mg) [mg]	Transmitted amount (%) ([2]; initial amount 10.0 mg)	Transmitted amount ([2]; initial amount 20.0 mg) [mg]	Transmitted amount (%) ([2]; initial amount 20.0 mg)
						Collagen	iontophoretically transmitted through the piece of pig ear skin	0.04	40	0.3	60	0.48	48	5.6	56	11.0	55
0.007	70	0.030	60	0.046	46	Hyaluronic acid											
